Results reported in patent US8187838B2, “β-Galactoside-α2, 6-sialyltransferase, a gene encoding thereof, and a method for producing thereof” (Japan Tobacco Inc., priority 2006, dated 2012).

Columns and labels:
[1] = Sialic acid transfer reaction using various glycosyl acceptor substrates (monosaccharides, disaccharides, trisaccharide); assay type: biochemical; conditions: for Sialyltransferase activity: pH 5.0, 30° C., 500 mM NaCl
Description: Cell homogenates prepared from E. coli cells into which JT-ISH-224-derived N1C0 had been introduced and from Photobacterium damselae strain JT0160 were each purified by ion exchange chromatography and hydroxyapatite chromatography to give an electrophoretically single band. The thus purified β-galactoside-α2,6-sialyltransferases were used in the following experiment in order to examine the presence or absence of sialyltransferase activity toward various monosaccharides, disaccharides and trisaccharides.
A reaction solution (24 μl) was prepared to contain CMP-^14C-NeuAc-containing CMP-NeuAc as a glycosyl donor substrate (10.9 nmol (8485 cpm), final concentration in the reaction solution: 0.455 mM), any of various glycosyl acceptor substrates dissolved in 20 mM cacodylate buffer (pH 5.0) (1 μmol, final concentration in the reaction solution: 42 mM), sialyltransferase (3.0 mU for JT-ISH-224-derived N1C0, 4.3 mU for JT0160) and NaCl (final concentration in the reaction solution: 500 mM), and reacted at 30° C. for 2 minutes or 60 minutes. The monosaccharides used as glycosyl acceptor substrates were the following 8 types: methyl-α-D-galactopyranoside (Gal-α-OMe), methyl-β-D-galactopyranoside (Gal-β-OMe), methyl-α-D-glucopyranoside (Glc-α-OMe), methyl-β-D-glucopyranoside (Glc-β-OMe), methyl-α-D-mannopyranoside (Man-α-OMe), methyl-β-D-mannopyranoside (Man-β-OMe), N-acetylgalactosamine ([…]), and N-acetylglucosamine ([…]). The disaccharides used were the following 5 types: lactose (Gal-β1,4-Glc), N-acetyllactosamine (Gal-β1,4-GlcNAc), methyl-β-D-galactopyranosyl-β1,3-N-acetylglucosaminide (Gal-β1,3-GlcNAc-β-OMe), methyl-α-D-galactopyranosyl-α1,3-galactopyranoside (Gal-α1,3-Gal-α-OMe), and methyl-β-D-galactopyranosyl-β1,3-galactopyranoside (Gal-β1,3-Gal-β-OMe). The trisaccharide used was 2′-fucosyllactose (Fuc-α1,2-Galβ1,4-Glc). It should be noted that the final concentration was set to 8.4 mM for the sugar chains shown in Table 4-2, i.e., methyl-α-D-galactopyranosyl-α1,3-[…] (Gal-α1,3-Gal-α-OMe), methyl-β-D-galactopyranosyl-β1,3-galactosaminide (Gal-β1,3-Gal-β-OMe) and 2′-fucosyllactose (Fuc-α1,2-Galβ1,4-Glc).
After completion of the enzymatic reaction, 1.98 ml of 5 mM phosphate buffer (pH 6.8) was added to the reaction solution to stop the enzymatic reaction. Then, the enzymatic reaction solution was diluted with 5 mM phosphate buffer (Ph 6.8) and applied in a volume of 2 ml to a AG1-×2Resin (PO4^3− form, 0.2×2 cm) column. This column was prepared as follows: AG1-×2Resin (OH^− form, BIO-RAD) was suspended in 1 M phosphate buffer (pH 6.8), and after 30 minutes, the resin was washed with distilled water and then suspended in distilled water. The eluate (0 to 2 ml) from this column was measured for its radioactivity. The eluate from this column contains the unreacted glycosyl acceptor substrate and the ^14C-NeuAc (N-acetylneuraminic acid)-bound reaction product which was generated by the reaction, whereas unreacted CMP-^14C-NeuAc is still retained on the column. Thus, the radioactivity of ^14C from each sialic acid-containing sugar chain generated as a result of the enzymatic reaction arises exclusively from the reaction product, so that the radioactivity of this fraction can be used to calculate the enzyme activity.
In the manner described above, the radioactivity of NeuAc transferred to each glycosyl acceptor substrate was measured to calculate the amount of transferred sialic acid.

asialofetuin = experiment: Sialic acid transfer to glycoprotein acceptor; assay type: biochemical; conditions: 25° C., 2 hours
Protocol: As a glycosyl acceptor substrate, asialofetuin was used. Asialofetuin (2 mg) was dissolved in 1 ml of 20 mM Bis-Tris buffer (pH 6.0) and used as a glycosyl acceptor substrate solution. As a glycosyl donor substrate, CMP-NeuAc was used. The glycosyl acceptor substrate solution (40 μl), the glycosyl donor substrate (5 μl) and either of the enzyme solutions (5 μl, 10 mU each) were mixed and incubated at 25° C. for 2 hours to cause sialic acid transfer reaction. After completion of the reaction, the reaction solution was gel-filtered by being applied to a SEPHADEX® G-50 Superfine (0.8×18.0 cm) equilibrated with 0.1 M sodium chloride. A glycoprotein-containing eluate fraction (2-4 ml fraction) from gel filtration was collected and measured for its radioactivity using a liquid scintillation counter to quantify sialic acid transferred to the glycosyl acceptor substrate.

B1: ISH224-N1C0 (protein, listed as Photobacterium sp.)
chain: MSEENTQSIIKNDINKTIIDEEYVNLEPINQSNISFTKHSWVQTCGTQQLLTEQNKESISLSVVAPRLDDDEKYCFDFNGVSNKGEKYITKVTLNVVAPSLEVYVDHASLPTLQQLMDIIKSEEENPTAQRYIAWGRIVPTDEQMKELNITSFALINNHTPADLVQEIVKQAQTKHRLNVKLSSNTAHSFDNLVPILKELNSFNNVTVTNIDLYDDGSAEYVNLYNWRDTLNKTDNLKIGKDYLEDVINGINEDTSNTGTSSVYNWQKLYPANYHFLRKDYLTLEPSLHELRDYIGDSLKQMQWDGFKKFNSKQQELFLSIVNFDKQKLQNEYNSSNLPNFVFTGTTVWAGNHEREYYAKQQINVINNAINESSPHYLGNSYDLFFKGHPGGGIINTLIMQNYPSMVDIPSKISFEVLMMTDMLPDAVAGIASSLYFTIPAEKIKFIVFTSTETITDRETALRSPLVQVMIKLGIVKEENVLFWADLPNCETGVCIAV
acceptor substrate specificity compared to the known JT0160 enzyme (in words) ([1]; 14 monosaccharides, disaccharides and trisaccharide): wider range of acceptor substrate specificity | Sialyltransferase activity Relative activity (%) ([1]; acceptor 2′-Fucosyllactose (Fuc-α1,2-Galβ1,4-Glc), 8.4 mM, lactose = 100): 92.1% | Sialyltransferase activity ([1]; acceptor 2′-Fucosyllactose (Fuc-α1,2-Galβ1,4-Glc), 8.4 mM): 1.316 nmol/min | Sialyltransferase activity ([1]; acceptor Lactose (Galβ1,4-Glc), 42 mM, Table 4-1): 1.875 nmol/min | Sialyltransferase activity Relative activity (%) ([1]; acceptor Lactose (Galβ1,4-Glc), 42 mM, Table 4-1, set to 100): 100.0% | Sialyltransferase activity ([1]; acceptor Lactose (Galβ1,4-Glc), series of Table 4-2 (other acceptors 8.4 mM)): 1.428 nmol/min | Sialyltransferase activity Relative activity (%) ([1]; acceptor Lactose (Galβ1,4-Glc), series of Table 4-2, set to 100): 100.0% | Sialyltransferase activity Relative activity (%) ([1]; acceptor Methylαgalactopyranoside (Galα-OMe), 42 mM, lactose = 100): 2.0% | Sialyltransferase activity ([1]; acceptor Methylαgalactopyranoside (Galα-OMe), 42 mM): 0.038 nmol/min | Sialyltransferase activity Relative activity (%) ([1]; acceptor Methylαgalactopyranosyl α1,3-galactopyranoside (Galα1,3-Galα-OMe), 8.4 mM, lactose = 100): 1.6% | Sialyltransferase activity ([1]; acceptor Methylαgalactopyranosyl α1,3-galactopyranoside (Galα1,3-Galα-OMe), 8.4 mM): 0.023 nmol/min | Sialyltransferase activity Relative activity (%) ([1]; acceptor Methylαglucopyranoside (Glcα-OMe), 42 mM, lactose = 100): 0.4% | Sialyltransferase activity ([1]; acceptor Methylαglucopyranoside (Glcα-OMe), 42 mM): 0.008 nmol/min | Sialyltransferase activity Relative activity (%) ([1]; acceptor Methylαmannopyranoside (Manα-OMe), 42 mM, lactose = 100): 0.5% | Sialyltransferase activity ([1]; acceptor Methylαmannopyranoside (Manα-OMe), 42 mM): 0.010 nmol/min | Sialyltransferase activity Relative activity (%) ([1]; acceptor Methylβ-galactopyranosylβ1,3-N-acetylglucosaminide (Galβ1,3-GlcNAcβ-OMe), 42 mM, lactose = 100): 76.5% | Sialyltransferase activity ([1]; acceptor Methylβ-galactopyranosylβ1,3-N-acetylglucosaminide (Galβ1,3-GlcNAcβ-OMe), 42 mM): 1.435 nmol/min | Sialyltransferase activity Relative activity (%) ([1]; acceptor Methylβgalactopyranoside (Galβ-OMe), 42 mM, lactose = 100): 59.2% | Sialyltransferase activity ([1]; acceptor Methylβgalactopyranoside (Galβ-OMe), 42 mM): 1.110 nmol/min | Sialyltransferase activity Relative activity (%) ([1]; acceptor Methylβgalactopyranosyl β1,3-galactopyranoside (Galβ1,3-Galβ-OMe), 8.4 mM, lactose = 100): 67.5% | Sialyltransferase activity ([1]; acceptor Methylβgalactopyranosyl β1,3-galactopyranoside (Galβ1,3-Galβ-OMe), 8.4 mM): 0.964 nmol/min | Sialyltransferase activity Relative activity (%) ([1]; acceptor Methylβglucopyranoside (Glcβ-OMe), 42 mM, lactose = 100): 0.5% | Sialyltransferase activity ([1]; acceptor Methylβglucopyranoside (Glcβ-OMe), 42 mM): 0.009 nmol/min | Sialyltransferase activity Relative activity (%) ([1]; acceptor Methylβmannopyranoside (Manβ-OMe), 42 mM, lactose = 100): 0.4% | Sialyltransferase activity ([1]; acceptor Methylβmannopyranoside (Manβ-OMe), 42 mM): 0.008 nmol/min | Sialyltransferase activity Relative activity (%) ([1]; acceptor N-Acetylgalactosamine (GalNAc), 42 mM, lactose = 100): 12.2% | Sialyltransferase activity ([1]; acceptor N-Acetylgalactosamine (GalNAc), 42 mM): 0.228 nmol/min | Sialyltransferase activity Relative activity (%) ([1]; acceptor N-Acetylglucosamine (GlcNAc), 42 mM, lactose = 100): 0.4% | Sialyltransferase activity ([1]; acceptor N-Acetylglucosamine (GlcNAc), 42 mM): 0.008 nmol/min | Sialyltransferase activity Relative activity (%) ([1]; acceptor N-Acetyllactosamine (Gatβ1,4-GlcNAc), 42 mM, lactose = 100): 99.3% | Sialyltransferase activity ([1]; acceptor N-Acetyllactosamine (Gatβ1,4-GlcNAc), 42 mM): 1.861 nmol/min | Radioactivity (cpm) (asialofetuin; 10 mU enzyme, glycoprotein fraction after gel filtration): 3051 cpm | sialic acid transfer to asialofetuin (in words) (asialofetuin): higher efficiency of sialic acid transfer
